Laboratory results from patent publication US20240383990A1 (DIAGONAL THERAPEUTICS, published 2024).
Each block holds one binder with its values, some of them ahead of it.

Assays:
Test in all cases: cell-based or functional assay
[1] = target: T1, IL-18 receptor (IL-18Rα and IL-18Rβ) on HEK-Blue IL-18 cells (UniProt Q13478 19-541; O95256 20-599, limits assumed)
T1 sequence (looked up) 1: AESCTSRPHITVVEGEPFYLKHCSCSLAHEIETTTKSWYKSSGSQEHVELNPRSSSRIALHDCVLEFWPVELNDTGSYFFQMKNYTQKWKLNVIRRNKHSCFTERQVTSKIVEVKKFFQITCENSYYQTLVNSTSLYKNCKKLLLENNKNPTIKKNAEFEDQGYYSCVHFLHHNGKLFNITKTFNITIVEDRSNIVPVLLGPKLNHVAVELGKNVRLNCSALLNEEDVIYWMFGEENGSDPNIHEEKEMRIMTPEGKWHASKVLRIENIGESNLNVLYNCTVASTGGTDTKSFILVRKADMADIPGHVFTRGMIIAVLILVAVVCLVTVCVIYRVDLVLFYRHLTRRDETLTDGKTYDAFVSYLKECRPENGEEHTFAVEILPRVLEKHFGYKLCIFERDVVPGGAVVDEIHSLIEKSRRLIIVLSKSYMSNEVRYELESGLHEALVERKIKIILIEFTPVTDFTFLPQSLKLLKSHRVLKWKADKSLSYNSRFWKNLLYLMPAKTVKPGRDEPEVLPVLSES
T1 sequence (looked up) 2: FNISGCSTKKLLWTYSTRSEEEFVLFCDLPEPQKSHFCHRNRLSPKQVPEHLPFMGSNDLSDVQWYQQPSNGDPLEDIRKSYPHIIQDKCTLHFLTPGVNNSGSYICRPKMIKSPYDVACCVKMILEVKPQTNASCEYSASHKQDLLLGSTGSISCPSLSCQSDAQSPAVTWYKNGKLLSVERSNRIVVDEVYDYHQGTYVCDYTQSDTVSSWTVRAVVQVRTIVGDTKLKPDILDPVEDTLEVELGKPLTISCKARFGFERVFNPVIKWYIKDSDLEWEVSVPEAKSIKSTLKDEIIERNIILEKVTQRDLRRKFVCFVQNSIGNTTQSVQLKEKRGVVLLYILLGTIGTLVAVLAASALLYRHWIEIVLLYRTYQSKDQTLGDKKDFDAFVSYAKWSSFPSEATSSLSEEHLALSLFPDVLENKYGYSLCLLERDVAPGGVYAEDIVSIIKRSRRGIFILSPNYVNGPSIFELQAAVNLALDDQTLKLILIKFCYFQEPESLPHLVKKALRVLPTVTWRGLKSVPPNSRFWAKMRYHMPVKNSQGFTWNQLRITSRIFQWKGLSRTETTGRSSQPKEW

[2] = target: T1, IL-18 receptor (IL-18Rα and IL-18Rβ) on …; remark: listed apart in the source
[3] = target: ALK1 / BMPRII receptor pair (BMPR Type I receptor ALK1 and BMPR Type II receptor BMPRII) on cells (UniProt P37023 22-503; Q13873 27-1038, limits assumed)
ALK1 / BMPRII receptor pair (BMPR Type I receptor ALK1 and BMPR Type II receptor BMPRII) on cells, sequence (P37023 22-503 limits assumed, chain 1 of 2): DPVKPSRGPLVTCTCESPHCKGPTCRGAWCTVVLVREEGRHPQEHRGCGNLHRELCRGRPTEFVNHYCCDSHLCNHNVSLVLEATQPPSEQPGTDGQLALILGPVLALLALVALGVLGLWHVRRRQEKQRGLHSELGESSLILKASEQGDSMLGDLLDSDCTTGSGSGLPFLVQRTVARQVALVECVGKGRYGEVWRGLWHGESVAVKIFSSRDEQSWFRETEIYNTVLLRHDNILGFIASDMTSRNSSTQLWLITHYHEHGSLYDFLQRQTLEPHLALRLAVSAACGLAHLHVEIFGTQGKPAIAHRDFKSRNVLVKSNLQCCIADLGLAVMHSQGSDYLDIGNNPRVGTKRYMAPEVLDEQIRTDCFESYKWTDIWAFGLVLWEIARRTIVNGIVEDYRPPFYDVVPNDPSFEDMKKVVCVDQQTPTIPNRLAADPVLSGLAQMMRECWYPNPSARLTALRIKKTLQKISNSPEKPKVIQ
ALK1 / BMPRII receptor pair (BMPR Type I receptor ALK1 and BMPR Type II receptor BMPRII) on cells, sequence (Q13873 27-1038 limits assumed, chain 2 of 2): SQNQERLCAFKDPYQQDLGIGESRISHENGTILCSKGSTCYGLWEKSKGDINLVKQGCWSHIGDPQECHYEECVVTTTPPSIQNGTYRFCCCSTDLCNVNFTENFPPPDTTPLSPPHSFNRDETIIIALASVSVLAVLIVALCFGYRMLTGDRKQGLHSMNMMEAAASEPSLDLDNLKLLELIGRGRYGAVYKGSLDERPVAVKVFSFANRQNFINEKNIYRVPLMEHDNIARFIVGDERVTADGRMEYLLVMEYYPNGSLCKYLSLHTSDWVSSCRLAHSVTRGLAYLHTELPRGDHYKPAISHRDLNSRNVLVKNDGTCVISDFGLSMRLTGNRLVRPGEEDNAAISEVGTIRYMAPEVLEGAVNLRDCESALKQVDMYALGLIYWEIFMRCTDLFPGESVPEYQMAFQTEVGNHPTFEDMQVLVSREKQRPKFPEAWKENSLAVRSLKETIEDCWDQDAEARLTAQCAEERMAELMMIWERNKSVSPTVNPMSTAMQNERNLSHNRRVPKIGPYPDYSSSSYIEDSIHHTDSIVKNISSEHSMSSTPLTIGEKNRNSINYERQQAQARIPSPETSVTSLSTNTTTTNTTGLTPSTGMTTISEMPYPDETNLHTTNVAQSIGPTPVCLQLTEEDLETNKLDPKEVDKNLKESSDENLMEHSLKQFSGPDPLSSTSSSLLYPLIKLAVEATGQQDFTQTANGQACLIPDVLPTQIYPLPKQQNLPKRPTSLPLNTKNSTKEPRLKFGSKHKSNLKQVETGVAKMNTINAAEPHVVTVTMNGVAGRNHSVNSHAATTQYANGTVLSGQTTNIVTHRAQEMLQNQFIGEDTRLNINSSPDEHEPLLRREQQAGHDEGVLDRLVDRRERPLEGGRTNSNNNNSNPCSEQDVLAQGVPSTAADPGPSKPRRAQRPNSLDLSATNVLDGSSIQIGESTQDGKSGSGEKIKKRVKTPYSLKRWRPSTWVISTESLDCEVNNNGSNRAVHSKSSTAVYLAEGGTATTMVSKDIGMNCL

[4] = target: T1, IL-18 receptor (IL-18Rα and IL-18Rβ) on …; remark: listed apart in the source

- Agonist activity in DiscoverX assay, % Emax BMP9 [3]: 78 % Emax BMP9
B3: DGL945 (bispecific antibody, human IgG1, lambda)
heavy: EVQLLESGGGLVQPGGSLRLSCAASGFTFSDYYMTWIRQAPGKGLEWVSSISGGSTYYADSRKGRFTISRDNSENTLYLQMNSLRAEDTAVYYCARDFGVAGWFGQYGMDVWGQGTLVTVSSPLAPEVQLLESGGGLVQPGGSLRLSCAASGFTFSSYAMSWVRQAPGKGLEWVANINQDGSEKNYVDSMRGRFTISRDNSKNTLYLQMNSLRAEDTAVYYCAREFDYWGQGTLVTVSSASTKGPSVFPLAPSSKSTSGGTAALGCLVKDYFPEPVTVSWNSGALTSGVHTFPAVLQSSGLYSLSSVVTVPSSSLGTQTYICNVNHKPSNTKVDKKVEPKSCDKTHTCPPCPAPEAAGAPSVFLFPPKPKDTLYITREPEVTCVVVDVSHEDPEVKFNWYVDGVEVHNAKTKPREEQYNSTYRVVSVLTVLHQDWLNGKEYKCKVSNKALPAPIEKTISKAKGQPREPQVYTLPPSRDELTKNQVSLTCLVKGFYPSDIAVEWESNGQPENNYKTTPPVLDSDGSFFLYSKLTVDKSRWQQGNVFSCSVMHEALHNHYTQKSLSLSPG
light: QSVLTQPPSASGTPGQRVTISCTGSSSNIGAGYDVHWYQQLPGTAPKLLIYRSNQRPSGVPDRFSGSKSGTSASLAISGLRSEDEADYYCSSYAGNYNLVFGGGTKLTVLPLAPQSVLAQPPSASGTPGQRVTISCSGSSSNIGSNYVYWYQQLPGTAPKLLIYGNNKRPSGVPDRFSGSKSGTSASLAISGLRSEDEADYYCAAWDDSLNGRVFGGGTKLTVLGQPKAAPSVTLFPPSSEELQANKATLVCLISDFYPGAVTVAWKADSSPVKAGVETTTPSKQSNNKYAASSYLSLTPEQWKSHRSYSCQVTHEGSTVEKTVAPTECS

- Agonist activity in DiscoverX assay, % Emax BMP9 [3]: 42 % Emax BMP9
B4: DGL949 (bispecific antibody, human IgG1, lambda)
heavy: EVQLLESGGGLVQPGGSLRLSCAASGFTFSDYYMNWIRQAPGKGLEWVSSISGGSTYYADSVKGRFTISRDNSENTLYLQMNSLRAEDTAVYYCARDFGVAGWFGYYGMDVWGQGTLVTVSSPLAPEVQLLESGGGLVQPGGSLRLSCAASGFTFSSYWMSWVRQAPGKGLEWVANIKQDGSEKNYVDSMRGRFTISRDNSKNTLYLQMNSLRAEDTAVYYCAREFDFWGQGTLVTVSSASTKGPSVFPLAPSSKSTSGGTAALGCLVKDYFPEPVTVSWNSGALTSGVHTFPAVLQSSGLYSLSSVVTVPSSSLGTQTYICNVNHKPSNTKVDKKVEPKSCDKTHTCPPCPAPEAAGAPSVFLFPPKPKDTLYITREPEVTCVVVDVSHEDPEVKFNWYVDGVEVHNAKTKPREEQYNSTYRVVSVLTVLHQDWLNGKEYKCKVSNKALPAPIEKTISKAKGQPREPQVYTLPPSRDELTKNQVSLTCLVKGFYPSDIAVEWESNGQPENNYKTTPPVLDSDGSFFLYSKLTVDKSRWQQGNVFSCSVMHEALHNHYTQKSLSLSPG
light: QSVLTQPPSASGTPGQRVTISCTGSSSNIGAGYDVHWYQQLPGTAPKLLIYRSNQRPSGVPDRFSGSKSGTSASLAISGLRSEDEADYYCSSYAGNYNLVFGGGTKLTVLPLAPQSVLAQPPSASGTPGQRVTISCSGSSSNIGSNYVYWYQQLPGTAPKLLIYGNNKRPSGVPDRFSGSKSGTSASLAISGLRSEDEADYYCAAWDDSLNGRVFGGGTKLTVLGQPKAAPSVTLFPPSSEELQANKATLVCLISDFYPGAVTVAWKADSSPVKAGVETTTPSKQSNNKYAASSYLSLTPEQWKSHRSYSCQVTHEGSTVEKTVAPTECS

- Agonist activity in DiscoverX assay, % Emax BMP9 [3]: 47 % Emax BMP9
B5: DGL947 (bispecific antibody, human IgG1, lambda)
heavy: EVQLLESGGGLVQPGGSLRLSCAASGFTFSDYYMNWIRQAPGKGLEWVSSISGGSTYYADSVKGRFTISRDNSENTLYLQMNSLRAEDTAVYYCARDFGVAGWFGQFGMDVWGQGTLVTVSSPLAPEVQLLESGGGLVQPGGSLRLSCAASGFTFSSYWMSWVRQAPGKGLEWVANINQDGSEKYYVDSMRGRFTISRDNSKNTLYLQMNSLRAEDTAVYYCAREYDYWGQGTLVTVSSASTKGPSVFPLAPSSKSTSGGTAALGCLVKDYFPEPVTVSWNSGALTSGVHTFPAVLQSSGLYSLSSVVTVPSSSLGTQTYICNVNHKPSNTKVDKKVEPKSCDKTHTCPPCPAPEAAGAPSVFLFPPKPKDTLYITREPEVTCVVVDVSHEDPEVKFNWYVDGVEVHNAKTKPREEQYNSTYRVVSVLTVLHQDWLNGKEYKCKVSNKALPAPIEKTISKAKGQPREPQVYTLPPSRDELTKNQVSLTCLVKGFYPSDIAVEWESNGQPENNYKTTPPVLDSDGSFFLYSKLTVDKSRWQQGNVFSCSVMHEALHNHYTQKSLSLSPG
light: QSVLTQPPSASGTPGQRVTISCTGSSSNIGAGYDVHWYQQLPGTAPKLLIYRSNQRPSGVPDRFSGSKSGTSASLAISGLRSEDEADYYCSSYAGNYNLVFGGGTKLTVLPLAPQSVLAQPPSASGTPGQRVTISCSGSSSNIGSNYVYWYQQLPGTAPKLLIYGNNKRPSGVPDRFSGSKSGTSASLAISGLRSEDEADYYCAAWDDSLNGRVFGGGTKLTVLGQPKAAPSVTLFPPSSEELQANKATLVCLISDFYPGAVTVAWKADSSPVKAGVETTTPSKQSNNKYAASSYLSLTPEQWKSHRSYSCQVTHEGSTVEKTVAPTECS

- Agonist activity in DiscoverX assay, % Emax BMP9 [3]: 78 % Emax BMP9
B6: DGL1146 (bispecific antibody, human IgG1, lambda)
heavy: EVQLLESGGGLVQPGGSLRLSCAASGFTFSDYYMTWIRQAPGKGLEWVSSISGGSTYYADSRKGRFTISRDNSENTLYLQMNSLRAEDTAVYYCARDFGVAGWFGQYGMDVWGQGTLVTVSSPLAPEVQLLESGGGLVQPGGSLRLSCAASGFTFSSYAMSWVRQAPGKGLEWVANINQDGSEKNYVDSMRGRFTISRDNSKNTLYLQMNSLRAEDTAVYYCAREFDYWGQGTLVTVSSASTKGPSVFPLAPSSKSTSGGTAALGCLVKDYFPEPVTVSWNSGALTSGVHTFPAVLQSSGLYSLSSVVTVPSSSLGTQTYICNVNHKPSNTKVDKKVEPKSCDKTHTCPPCPAPEAAGAPSVFLFPPKPKDTLMISRTPEVTCVVVDVSHEDPEVKFNWYVDGVEVHNAKTKPREEQYNSTYRVVSVLTVLHQDWLNGKEYKCKVSNKALPAPIEKTISKAKGQPREPQVYTLPPSRDELTKNQVSLTCLVKGFYPSDIAVEWESNGQPENNYKTTPPVLDSDGSFFLYSKLTVDKSRWQQGNVFSCSVLHEALHSHYTQKSLSLSPG
light: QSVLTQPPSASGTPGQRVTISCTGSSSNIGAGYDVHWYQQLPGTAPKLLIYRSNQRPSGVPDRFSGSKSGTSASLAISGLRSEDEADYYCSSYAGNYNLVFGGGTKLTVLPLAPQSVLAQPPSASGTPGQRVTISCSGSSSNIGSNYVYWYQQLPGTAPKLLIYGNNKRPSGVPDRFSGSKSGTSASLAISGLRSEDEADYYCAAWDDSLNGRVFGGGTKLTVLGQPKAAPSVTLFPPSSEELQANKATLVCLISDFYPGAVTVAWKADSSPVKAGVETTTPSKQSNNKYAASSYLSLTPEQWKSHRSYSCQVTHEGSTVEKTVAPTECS

Second part, the binder before the results:

B1: DGL207 (bispecific antibody)
chain 1: QVQLVESGGGLVQAGGSLRLSCAASGRTFSKHAMGWFRQAPGKEREFVAAIDWSGGSTYYADSVKGRFTISRDNAKNTVYLQMDSLKPEDTAVYYCAADSYTDYAQLWLPELESEYDYWGQGTLVTVSSCPPCPAPEAAGAPSVFLFPPKPKDTLMISRTPEVTCVVVDVSHEDPEVKFNWYVDGVEVHNAKTKPREEQYNSTYRVVSVLTVLHQDWLNGKEYKCKVSNKALPAPIEKTISKAKGQPREPQVCTLPPSRDELTKNQVSLSCAVKGFYPSDIAVEWESNGQPENNYKTTPPVLDSDGSFFLVSKLTVDKSRWQQGNVFSCSVMHEALHNHYTQKSLSLSPGWSHPQFEK
chain 2: QLQLVESGGGLVQAGGSLRLSCAASRSITFSHNVMGWYRQAPGKQRELVASIGSGGSTNYVDSVKGRATISRDNAKKTVYLQMNSLKPEDTAVYYCGVVVGVYRGSLGQGTLVTVSSCPPCPAPEAAGAPSVFLFPPKPKDTLMISRTPEVTCVVVDVSHEDPEVKFNWYVDGVEVHNAKTKPREEQYNSTYRVVSVLTVLHQDWLNGKEYKCKVSNKALPAPIEKTISKAKGQPREPQVYTLPPCRDELTKNQVSLWCLVKGFYPSDIAVEWESNGQPENNYKTTPPVLDSDGSFFLYSKLTVDKSRWQQGNVFSCSVMHEALHNHYTQKSLSLSPGEPEA
- HEK-Blue assay, % hu-IL-18 [1]: 98 % of human IL18 activity
- HEK-Blue assay, % human IL-18 [2]: 85 % of human IL18 activity

B2: DGL093 (bispecific antibody, IgG1)
chain 1: QVQLVESGGGLVQAGGSLRLSCAASGRTFSKHAMGWFRQAPGKEREFVAAIDWSGGSTYYADSVKGRFTISRDNAKNTVYLQMDSLKPEDTAVYYCAADSYTDYAQLWLPELESEYDYWGQGTQVTVSSDKTHTCPPCPAPEAAGGPSVFLFPPKPKDTLMISRTPEVTCVVVDVSHEDPEVKFNWYVDGVEVHNAKTKPREEQYNSTYRVVSVLTVLHQDWLNGKEYKCKVSNKALPAPIEKTISKAKGQPREPQVCTLPPSRDELTKNQVSLSCAVKGFYPSDIAVEWESNGQPENNYKTTPPVLDSDGSFFLVSKLTVDKSRWQQGNVFSCSVMHEALHNHYTQKSLSLSPG
chain 2: not shown
- HEK-Blue assay, % hu-IL-18 [1]: 65 % of human IL18 activity

B7: DGL221 (bispecific antibody)
chain 1: QVQLVESGGGLVQAGGSLRLSCAASGRTFSKHAMGWFRQAPGKEREFVAAIDWSGGSTYYADSVKGRFTISRDNAKNTVYLQMDSLKPEDTAVYYCAADSYTDYAQLWLPELESEYDYWGQGTLVTVSSGGGGSGGGGSGGGGSGGGGSCPPCPAPEAAGAPSVFLFPPKPKDTLMISRTPEVTCVVVDVSHEDPEVKFNWYVDGVEVHNAKTKPREEQYNSTYRVVSVLTVLHQDWLNGKEYKCKVSNKALPAPIEKTISKAKGQPREPQVCTLPPSRDELTKNQVSLSCAVKGFYPSDIAVEWESNGQPENNYKTTPPVLDSDGSFFLVSKLTVDKSRWQQGNVFSCSVMHEALHNHYTQKSLSLSPGWSHPQFEK
chain 2: not shown
- HEK-Blue assay, % human IL18 [4]: 19 % human IL18

B8: DGL222 (bispecific antibody)
chain 1: QVQLVESGGGLVQAGGSLRLSCAASGRTFSKHAMGWFRQAPGKEREFVAAIDWSGGSTYYADSVKGRFTISRDNAKNTVYLQMDSLKPEDTAVYYCAADSYTDYAQLWLPELESEYDYWGQGTLVTVSSEKSYGPPCPPCPAPEAAGAPSVFLFPPKPKDTLMISRTPEVTCVVVDVSHEDPEVKFNWYVDGVEVHNAKTKPREEQYNSTYRVVSVLTVLHQDWLNGKEYKCKVSNKALPAPIEKTISKAKGQPREPQVCTLPPSRDELTKNQVSLSCAVKGFYPSDIAVEWESNGQPENNYKTTPPVLDSDGSFFLVSKLTVDKSRWQQGNVFSCSVMHEALHNHYTQKSLSLSPGWSHPQFEK
chain 2: not shown
- HEK-Blue assay, % human IL18 [4]: 44 % human IL18
